Data published in patent US20180194847A1 (SEOUL NATIONAL UNIVERSITY R AND DB FOUNDATION, published 2018).

Target: T1, recombinant human CD154 protein (human, UniProt P29965 47-261, limits assumed)
T1 construct: This protein was immobilised on the SPR chip; also called human CD154 antigen
T1 sequence: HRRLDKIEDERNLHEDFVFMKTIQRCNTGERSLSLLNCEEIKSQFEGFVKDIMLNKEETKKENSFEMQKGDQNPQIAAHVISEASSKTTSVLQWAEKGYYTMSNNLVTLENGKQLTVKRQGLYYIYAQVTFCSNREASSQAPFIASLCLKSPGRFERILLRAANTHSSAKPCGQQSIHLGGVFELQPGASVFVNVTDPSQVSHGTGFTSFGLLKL
Assay: SPR (Reichert SR7500DC), CD154 immobilised on chip, antibody in flow
Protocol: The binding affinity KD of each of the RD-05 mouse antibody and IgG4 and IgG4 (L115E) RD-05 chimeric antibodies, produced as described above, for human CD154 antigen, was measured using an SPR method by Woojung BSC, Inc. (Suwon, Gyeonggi-do, Korea). Specifically, 17.5 μg/ml of recombinant human CD154 protein in immobilization buffer (10 mM sodium acetate, pH 6.0) was attached to a CMDH gold chip (Cat#13206066, Reichert Technologies, Depew, N.Y., USA) at a density of 2300 RU (resonance unit; 1 RU=1 pg/mm² surface area), after which 3.125 μg/ml of bovine serum albumin was attached at a density of 650 RU. The RD-05 antibody was diluted in PBS at […], 1.25, 2.5, 5, 10, 20, 40, 80, 160, 320, 2560 and 5120 nM. […] Based on the determined values, the KD values were calculated.

Kd: 37 nM
B1: RD-05 mouse antibody (antibody, V domains shown)
VH: DVQLQESGPGLVKPSQSLSLTCTVTGYSITSDYAWNWIRQFPGNKLEWMGYITYSGTTSYNPSLKSRISLTRDTSKNQFFLQLNAVTTEDTATYYCARSPYYGPWYFDVWGAGTTVTVSS
VL: DIVLTQSPASLTVSLGQRATISCKASQSVDYDGDSYLHWYQQKPGQPPKLLIYAASYLESGIPARFSGSGSGTDFTLNIHPVEEEDAATYYCQQSNEDPNTFGGGTKLEIKR
notes: Mouse monoclonal antibody from the hybridoma, kappa light chain; also called mouse RD-05 antibody; anti-human CD154 antibody
